# Assay results as given in article doi:10.1101/2022.03.21.485092.
# Biological target: hnRNP A1 spin-labelled at 231 (Homo sapiens, UniProt P09651-2 1-320, M1G;C43S;C175A;S231C)
# Test: CW EPR
binder,measurement,value
CCAGCAUUAUGAAAAUGA (ssRNA) [RNAga (3' AG motif mutated)],binding result,binds
